The values that follow come from doi:10.1101/2025.10.07.680968, “Widespread genomic heterogeneity at the type II NAD(P)H dehydrogenase locus predisposes Cryptosporidium to clofazimine resistance” (bioRxiv, 2025).

As usually defined, the Km is the substrate concentration at which the rate is half of its maximum. For orientation: IC50 means the point on the concentration scale where inhibition reaches its midpoint.

The test system of series [1] is COC1=C(OC)C(=O)C(C/C=C(\C)CCC=C(C)C)=C(C)C1=O. The experiment in a line: purified protein. To be noted: 400 μM NADH, pH 7.0, 25 °C, 0.1% Triton X-100, intact MBP fusion, positive cooperativity.
The test system of series [2] is CC(C)N=c1cc2n(-c3ccc(Cl)cc3)c3ccccc3nc-2cc1Nc1ccc(Cl)cc1. The experiment in a line: purified protein. To be noted: 400 μM NADH, pH 7.0, 25 °C, 0.1% Triton X-100, intact MBP fusion, positive cooperativity.
Series [3] has as its system CC(C)=CCC/C(C)=C/CC/C(C)=C/CC/C(C)=C/CC1=C(C)C(=O)c2ccccc2C1=O. In words: purified protein. The note with it: 400 μM NADH, pH 7.0, 25 °C, 0.1% Triton X-100, intact MBP fusion, Michaelis-Menten.
The subject of another series is CC1=CC(=O)c2ccccc2C1=O. The experiment in a line: purified protein. The note with it: 400 μM NADH, pH 7.0, 25 °C, 0.1% Triton X-100, Michaelis-Menten.
The target of series [4] is T1, CpNDH2 (CpNDH2-WT; MBP-CpNDH2) (Cryptosporidium parvum, UniProt F0X6E5).
T1 construct: gene cgd7_1900; full-length ORF (568 predicted residues), N-terminal MBP fusion from pMAL-c5X, E. coli BL21(DE3), amylose-resin purified
The experiment in a line: inhibition of menadione reduction, NADH oxidation at […] nm. It is filed as biochemical.

T1 sequence (F0X6E5 entry or part of it): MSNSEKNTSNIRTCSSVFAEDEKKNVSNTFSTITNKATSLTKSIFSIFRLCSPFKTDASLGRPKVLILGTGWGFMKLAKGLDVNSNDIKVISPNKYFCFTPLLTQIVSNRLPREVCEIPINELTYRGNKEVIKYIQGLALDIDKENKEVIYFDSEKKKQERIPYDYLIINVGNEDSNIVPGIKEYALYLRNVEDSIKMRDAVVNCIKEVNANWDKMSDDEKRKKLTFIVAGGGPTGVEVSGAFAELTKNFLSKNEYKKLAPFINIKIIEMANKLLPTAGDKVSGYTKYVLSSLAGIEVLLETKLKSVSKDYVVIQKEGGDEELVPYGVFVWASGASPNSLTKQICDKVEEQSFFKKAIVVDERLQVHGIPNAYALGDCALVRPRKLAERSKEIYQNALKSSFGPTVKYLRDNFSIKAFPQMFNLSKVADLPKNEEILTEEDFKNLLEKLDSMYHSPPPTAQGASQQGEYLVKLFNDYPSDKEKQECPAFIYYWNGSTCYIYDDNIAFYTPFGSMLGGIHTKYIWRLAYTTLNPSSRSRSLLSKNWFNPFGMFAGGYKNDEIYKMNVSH

For “CpNDH2 (CpNDH2-WT; MBP-CpNDH2) (Cryptosporidium parvum)”, the K0.5 in series [1] was found to be 7.17 µM; in series [2], 30.0 µM. The Km in series [3] worked out at 139.3 µM; with CC1=CC(=O)c2ccccc2C1=O, 113.7 µM.
Compound `CC(C)/N=c1\cc2n(-c3ccc(Cl)cc3)c3ccccc3nc-2cc1Nc1ccc(Cl)cc1` [CFZ, clofazimine] yielded an IC50 in series [4] of 2950 nM. This counts as single-digit micromolar.
